# Assay results reported in patent US20190248902A1 (published 2019).
# Substitutions are numbered along the chain they refer to.
# T1: human ASGR-1 mutant construct H203 (human, UniProt P07306 1-291)
# T1 construct: Arg/Glu scanning: non-arginine residues were changed to arginine; Transiently expressed on CHO-S cells
# T1 sequence: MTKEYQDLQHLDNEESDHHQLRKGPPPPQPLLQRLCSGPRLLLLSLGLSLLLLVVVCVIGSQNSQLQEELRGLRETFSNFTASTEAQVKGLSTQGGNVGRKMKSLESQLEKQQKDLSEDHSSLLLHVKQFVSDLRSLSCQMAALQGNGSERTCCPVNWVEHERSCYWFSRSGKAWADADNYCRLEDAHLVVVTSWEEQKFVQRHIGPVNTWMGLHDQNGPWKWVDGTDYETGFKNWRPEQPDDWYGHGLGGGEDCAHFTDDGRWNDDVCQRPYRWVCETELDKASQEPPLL
# T2: human ASGR-1 (wild type) (human, UniProt P07306 1-291)
# T2 construct: also called wt ASGR1; huASGR-1
# T2 sequence: T1 sequence with R203H
# B1: 6G7 (antibody, V domains shown)
# VH: QVQLVESGGGVVQPGRSLRLSCAASGFTFSSYGMHWVRQTPGKGLEWVAIISYVGKNKYYADSVKGRFTISRDNSKNTLYLQMNSLRAEDTAVYYCARRGNSYGGYGMDVWGQGTTVTVSS
# VL: DIQMTQSPSSRSASVGDRVTITCQASQDISNYLNWCQQKPGKALKLLIYDASTLETGVPSRFSGSGSGTDFTFTISSVQPEDIATYYCQQYDNVPITFGQGTRLEIK
# notes: mAb
# B2: 56E5 (antibody, V domains shown)
# VH: QVQLVQSGAEVKKPGASVKVSCQASGYTFTGYHMHWVRQAPGQGLEWMGWINPNNNATNYAQKFQGRVTMTRDTSISTAYMELRRLRSDDTAVYHCARDGTSSFDYWGQGTLVTVSS
# VL: DIQMTQSPSSVSASVGDRVTITCRASQGIRKWLAWYQQKPGKAPKLLIYAASSLQSGVPSRFSGSGSGTDFTLTISSLQPEDFATYYCQQANSFPFTFGPGTKVDIK
# notes: mAb
# B3: 72G9 (antibody, V domains shown)
# VH: EVQLVESGGGLVKPGGSLRLSCAASGFTFSSYSMNWVRQAPGKGLEWVSSISGSSSYIYYADSVKGRFTISRDNAKNSLYLQMNSLRAEDTAVYFCARGGSRGFDPWGQGTLVTVSS
# VL: B2 VL with V11L, G28S, R30T, K31S, W32Y, A34N, A50T, A91S, N92H
# notes: mAb
# B4: 7E11 (antibody, V domains shown)
# VH: QVQLVESGGGVVQPGRSLRLSCAASGFTFSSFGMHWVRQAPGKGLEWVAIIWHDGSNKYYADSVKGRFTISRDNSNNTLYLQMSSLRAEDTAVYYCARDLSMGGMDVWGQGTTVTVSS
# VL: DIQMTQSPSSLSASVGDRVTIACRASQNIISYLNWYQQKPGKAPKFLIYTASSLQSGVPSRFSGSGSGTDFTLTISSLQPEDFAIYYCQQTYSTPLTFGGGTKVEIK
# notes: mAb
# B5: 184E7 (antibody, V domains shown)
# VH: QVQLVQSGAEVKTPGASVKVSCRASGYTFTSYNMHWVRQVPGQGLEWMGWINPNNGGSNYTQKFQGRVTMTRDTSISTAYMELSRLRSDDTAVYYCARKFGDWGQGTLVTVSS
# VL: DIQMTQSPSSRSASIGERVTITCRASQGISNYLAWIQQKPGTAPKSLIYAASSLQSGVSSRFSGSGFGTDFTITISSVQREDFATYYCQQYNGYPFTFGHGTKVDIK
# notes: mAb
# B6: 194A4 (antibody, V domains shown)
# VH: QVQLVQSGTEVKKPGASLKVSCKASGYTFTVYYLNWVRQAPGQGLEWMGWINPNSGGTNYAQKFQGRVTMTRDTSISTAYMELSRLRSDDTAVYYCARGYDILTGWGQGTLVTVSS
# VL: EIVLTQSPGTLSLSPGERATLSCRASRGVSNIYLAWYQQKPGQAPRLLIYGASNRATGIPDRFSGSGSGTDFTLTISRLEPEDFAVYYCQHNDYSMFTFGPGTKVDIK
# notes: mAb
# B7: 190F8 (antibody, V domains shown)
# VH: QVQLVESGGGVVQPGRSLRLSCAASGFTFSTYGMHWVRQAPGKGLEWVAVIWYDGSNKNYADSVKGRFTISRDNSKNTLYLQMNSLRAEDTAVYYCARDQGVGYDGLDVWGQGTTVTVSS
# VL: DIQMTQSPSSLSASVGDRVTITCRTSQGIGNYLAWFQQKPGKAPKSLLYKASSLQSGVPSKFSGSGSGTDFTLTISSLQPEDFATYYCQQYMTYPLTFGGGTKVEIK
# notes: mAb
# B8: 4A2 (antibody, V domains shown)
# VH: QVQLVQSGTEVKKPGASVKVSCKASGYTFTNYDINWVRQATGQGLEWMGWMHPNSGNTGYAQKFQGRVTLTRNTSISTAYMELSSLRSEDTAVYYCASSSGWYYFDYWGQGTLVTVSS
# VL: DIVMTQSPDSLAVSLGERATINCKSSQSILHSSNNNNYLAWFQQKPGQPPKLLLYWASTRESGVPDRFSGSGSGTDFTLTISSLQPEDVAVYYCQQYYNTPVTFGPGTKVGIK
# notes: mAb
# B9: 25A4 (antibody, V domains shown)
# VH: B8 VH with Q3L, T9A, K13R, H52Y, L70M
# VL: DIVMTQFPDSLAVSLGERATIKCKSSQSVLYSSHNNNYLAWYQQKPGQPPKLLLYWASTRESGVPDRFSGSGSGTEFTLTISSLEAEDVAVYYCQQYYSTPPTFGQGTKVEIK
# notes: mAb
# B10: 26C4 (antibody, V domains shown)
# VH: B8 VH with T9A, T41S, H52N, K63R, L70M, S77N
# VL: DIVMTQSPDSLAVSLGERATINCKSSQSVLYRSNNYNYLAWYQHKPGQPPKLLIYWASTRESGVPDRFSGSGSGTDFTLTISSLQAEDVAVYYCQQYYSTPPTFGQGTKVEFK
# notes: mAb
# B11: 29H8 (antibody, V domains shown)
# VH: B8 VH with T9A, K12Q, H52N, K63R, L70M, T78A
# VL: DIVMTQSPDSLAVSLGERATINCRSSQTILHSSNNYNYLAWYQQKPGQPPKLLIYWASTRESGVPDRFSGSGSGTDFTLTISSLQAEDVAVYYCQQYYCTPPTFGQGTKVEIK
# notes: mAb
# B12: 5E5 (antibody, V domains shown)
# VH: QVQLVESGGGVVQPGRSLRLSCAASGFTFSNYVMHWVRQAPGKGLEWVAVIWYDGSNKYYADSVKGRFTISRDNSKNTLYLQMNSLRAEDTAVYYCTREVYSSGWYDYGMDVWGQGTTVTVSS
# VL: DIQMTQSPSSLSASVGDRVTITCRASQGIRNDLGWYQQKPGKAPKRLIYAASSLQSGVPSRFSGSGSGTEFTLTISSLQPEDFATYYCLQHYSYPRTFGQGTKVEVK
# notes: mAb
# B13: 7G4 (antibody, V domains shown)
# VH: B12 VH with S30N, N84T, T97A, V100K, G104N
# VL: B12 VL with K39R, F83S, Q90H, H91Q, V106I
# notes: mAb
# B14: 22G5 (antibody, V domains shown)
# VH: EVQLLESGGGLVQPGGSLRLSCAASGFTFSSYAMNWVRQAPGMGLEWVSVISRSGGYTYYADSVKGRFTISRDNSKNTLYLQMNSLRAEDTAVYYCASRLAVAGSEAFDIWGQGTLVTVSS
# VL: DIQMTQSPSSLSASVGDRVTITCRASQNISSYLNWYQQKQGKAPKLLIYAASSLQNGVPSRFSGRGSGTDFTLTISSLQPEDFATYYCQQSYRTPLFTFGPGTKVDFK
# notes: mAb
# B15: 48B12 (antibody, V domains shown)
# VH: EVQLLESGGGLVQPGGSLRLSCAASGFTFSSYAMNWVRQAPGKGLEWVSAISGRGGNTFYADSVKGRFTISRDNSKNTLYLQMNSLRAEDTAVYYCAKRETYNWNYEGFDYWGQGTLVTVSS
# VL: SYELTQPPSVSVSPGQTARITCSGDALPKKYAYWYQQKSGQAPVLVIYEDSKRPSGIPERFSGSSSGTMATLTISGAQVEDEADYYCNSTDSSGNHVVFGGGTKLTVL
# notes: mAb
# Target: T1, human ASGR-1 mutant construct H203
# Assay: FACS ratio: 65C12 geomean / this mAb geomean
# How it was run: (§1)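 CHO-S cells transiently expressing wild-type or point-mutant hASGR-1 were stained with antibody at 5 ug/ml for 1 h at 4 °C. Bound antibody was detected by Fc-specific Alexa 647 secondary plus 7-AAD and read by flow cytometry. Ratio is 65C12 geomean divided by test mAb geomean, normalizing for expression.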
row,Binder,Expression Normalization to mAb 65C12
1,B1,1.71
2,B2,1.27
3,B3,1.37
4,B4,1.75
5,B5,1.4
6,B6,2.12
7,B7,1.71
8,B8,1.36
9,B9,1.29
10,B10,1.91
11,B11,1.95
12,B12,2.04
13,B13,1.39
14,B14,1.71
15,B15,1.26

# Target: T2, human ASGR-1 (wild type)
# Assay: FACS ratio: 65C12 geomean / this mAb geomean
# How it was run: as §1
row,Binder,Expression Normalization to mAb 65C12
1,B1,1.45
2,B2,1.32
3,B3,1.54
4,B4,1.23
5,B5,1.31
6,B6,3.44
7,B7,1.54
8,B8,1.36
9,B9,1.01
10,B10,1.22
11,B11,1.37
12,B12,1.38
13,B13,1.16
14,B14,1.24
15,B15,1.07
